# Results: patent publication US20230088269A1
# B1: 170B2 Fab (Fab, from another filing, V domains shown)
# VH: EVQLVESGGGLVQPGGSLRLSCAASGFTFSSSWMYWVRQAPGKGLEFVSVINTRSGITHYVESVKGRFTISTDNAKNTLFLQMNSLKSEDTAVYYCATRIQGLIDYWGQGTQVTVSS
# VL: DIVMTQSPSSLSVSLGDRVTITCQASQSIGSVNALAWYQQKPGQSLKLLIHGASRLQTGVPSRFSGSGSGTSFTLAISGVEAEDLATYYCLQDYAWPLTFGQGTKVELK
# Molecular target: recombinant human IL-22R (R&D Systems / Biotechne 2770-LR) (human) (UniProt Q8N6P7)
# Assay: SPR (Biacore), purified Fab
# Chain of recombinant human IL-22R (R&D Systems / Biotechne 2770-LR) (human) (Q8N6P7 16-228 limits assumed): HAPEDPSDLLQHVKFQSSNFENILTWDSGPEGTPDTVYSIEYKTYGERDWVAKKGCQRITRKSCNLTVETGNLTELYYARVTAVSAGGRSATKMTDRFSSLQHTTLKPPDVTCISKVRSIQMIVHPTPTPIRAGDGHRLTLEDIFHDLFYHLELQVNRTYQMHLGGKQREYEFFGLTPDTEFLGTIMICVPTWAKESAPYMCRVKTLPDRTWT
binder,measurement,value
B1,koff,0.00035 s⁻¹
